The target in experiment [1] is T1, human recombinant soluble ACE2 (human, UniProt Q9BYF1 18-740).
T1 construct: also called hrsACE2
Description: ELISA. For orientation: In an ELISA, binding on a coated surface is turned into a signal by an enzyme label.

Experiment [2] concerns the target T2, full-length trimeric SARS-CoV-2 Spike protein (Spike-H6) (SARS-CoV-2, N-glycosylated (22 N-glycosylation sites)).
T2 construct: also called trimeric Spike; full-length Spike-H6
In words: ELISA screen.

For experiment [3], the target named is T3, monomeric SARS-CoV-2 receptor binding domain (RBD-H6) (SARS-CoV-2, UniProt P0DTC2 319-541).
T3 construct: Made in HEK293-6E cells; also called RBD Spike; monomeric RBD
In words: ELISA screen.

For experiment [4], the target named is T1, human recombinant soluble ACE2. In words: ELISA screen.
The target of experiment [5] is T2, full-length trimeric SARS-CoV-2 Spike …. In words: inhibition of Spike binding to Vero E6 cells, AFM.
For experiment [6] the target is unchanged. In words: AFM single molecule force spectroscopy, Evans model.
For experiment [7] the target is unchanged. Description: SPR, Spike immobilized, bivalent analyte model, first binding step. Background: SPR reads the build-up and loss of mass on a sensor chip optically.

Seven molecules from patent EP4039268A1 (IMBA-Institut für Molekulare Biotechnologie GmbH, dated 2022) can be followed below.

A word on the Ki: it is the dissociation constant of the complex between target and ligand, obtained from inhibition or displacement. Lower therefore signals tighter binding. The term koff denotes a measure of how fast the partners let go of each other. High values mean fast dissociation, low ones slow dissociation. One may read the kon as the rate constant with which the complex forms. Lower therefore signals slow association.

T1 sequence (Q9BYF1 18-740 limits assumed): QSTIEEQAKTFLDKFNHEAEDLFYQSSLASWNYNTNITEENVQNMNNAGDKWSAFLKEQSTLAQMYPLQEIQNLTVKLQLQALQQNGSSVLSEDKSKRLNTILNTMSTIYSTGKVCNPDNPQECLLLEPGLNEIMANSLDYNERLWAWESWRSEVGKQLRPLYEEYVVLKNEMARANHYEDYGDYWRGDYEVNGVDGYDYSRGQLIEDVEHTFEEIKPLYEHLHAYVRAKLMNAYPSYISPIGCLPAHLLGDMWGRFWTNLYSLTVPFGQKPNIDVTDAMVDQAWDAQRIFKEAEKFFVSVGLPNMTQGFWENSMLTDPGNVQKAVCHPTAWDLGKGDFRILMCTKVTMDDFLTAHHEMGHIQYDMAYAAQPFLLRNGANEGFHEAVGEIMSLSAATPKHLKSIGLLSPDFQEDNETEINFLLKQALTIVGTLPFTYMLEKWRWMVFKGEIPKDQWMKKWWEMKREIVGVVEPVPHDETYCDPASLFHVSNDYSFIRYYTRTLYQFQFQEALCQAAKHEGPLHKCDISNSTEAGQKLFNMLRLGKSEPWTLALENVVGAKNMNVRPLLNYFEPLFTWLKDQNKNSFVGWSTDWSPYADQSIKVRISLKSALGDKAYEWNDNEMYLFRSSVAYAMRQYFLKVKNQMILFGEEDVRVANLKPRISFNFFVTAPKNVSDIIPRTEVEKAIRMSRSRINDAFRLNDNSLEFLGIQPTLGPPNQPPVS

B1: Clec11a CRD-mouse IgG2a-Fc fusion protein (Fc fusion)
chain: LGHKCFLLSRDFETQAAAQARCKARGGSLAQPADRQQMDALSRYLRAALAPYNWPVWLGVHDRRSEGLYLFENGQRVSFFAWHRAFSLESGAQPSAATHPLSPDQPNGGVLENCVAQASDDGSWWDHDCERRLYFVCEGGGSGGGSGGGS
Turning to B1, in experiment [1], the binding result was “no binding (tested: 10 µg/ml)”. For the same molecule, the results for the “Mean normalized OD” value in experiment [2], in experiment [3] and in experiment [4] were 0.032 OD, 0.011 OD and 0.17 OD, respectively.

B2: Clec14a CRD-mouse IgG2a-Fc fusion protein (Fc fusion)
chain: ASGACYSLHHATFKRRAAEEACSLRGGTLSTVHSGSEFQAVLLLLRAGPGPGGGSKDLLFWVALERSISQCTQEKEPLRGFSWLHPDSEDSEDSPLPWVEEPQRSCTVRKCAALQATRGVEPAGWKEMRCHLRTDGYLCKYGGGSGGGSGGGS
As to B2, in experiment [1], the binding result was “no binding (tested: 10 µg/ml)”. The “Mean normalized OD” value is 0.012 OD in experiment [2], 0.004 OD in experiment [3] and 0.029 OD in experiment [4].

B3: Asgr2 CRD-mouse IgG2a-Fc fusion protein (Fc fusion)
chain: CCPVNWVEFGGSCYWFSRDGLTWAEADQYCQLENAHLLVINSREEQDFVVKHRSQFHIWIGLTDRDGSWKWVDGTDYRSNYRNWAFTQPDNWQGHEQGGGEDCAEILSDGHWNDNFCQQVNRWVCEKGGGSGGGSGGGS
In the case of B3, the binding result in experiment [1] is given as “no binding (tested: 10 µg/ml)”. Besides, the “Mean normalized OD” value was found to be 0.003 OD in experiment [2], 0.013 OD in experiment [3] and 0.034 OD in experiment [4].

B4: Clec1b CRD-mouse IgG2a-Fc fusion protein (Fc fusion)
chain: HGDSCYGFFRRNLTWEESKQYCTEQNATLVKTASQSTLDYIAERITSVRWIGLSRQNSKKDWMWEDSSVLRKNGINLSGNTEENMNCAYLHNGKIHPASCKERHYLICEGGGSGGGSGGGS
With B4, the binding result in experiment [1] is reported as “no binding (tested: 10 µg/ml)”. In addition, the “Mean normalized OD” value in experiment [2] was 0.024 OD; in experiment [3], 0.03 OD; in experiment [4], 0.04 OD.

B5: Clec12b CRD-mouse IgG2a-Fc fusion protein (Fc fusion)
chain: YGNSCYYFSINEEKSWSDSRKDCIDKNATLVKIDSTEERDLLQSQLSLTFSFFWLGLSWNSSGRNWLWEDGSFPPPTLFSDKELASFNGSRDCAYFERGNIYASRCSAEIPWICEGGGSGGGSGGGS
For the molecule B5, in experiment [1], the binding result is given as “no binding (tested: 10 µg/ml)”. Further, the “Mean normalized OD” value in experiment [2] stood at 0.002 OD; in experiment [3], 0.001 OD; in experiment [4], 0.007 OD.

B6: Clec4g CRD-mouse IgG2a-Fc fusion protein (Fc fusion)
chain: FQGSCYYFSETQATWDTAQSYCGGQGAHLVIVRGLNEQGFLSQHTRGRGYWLGLRAVRHLNKIQGYRWVDGASLNFSHWNSGEPNDSRGHEDCIMMLHSGLWNDAPCTNERDGWICGGGSGGGSGGGS
In the case of B6, in experiment [1], the binding result is “no binding (tested: 10 µg/ml)”. The “Mean normalized OD” value stood at 1.68 OD in experiment [2] and 0.04 OD in experiment [4]. In experiment [5], this molecule showed a Ki of 35 to 70 nM. Besides, the values for the off-rate (koff) in experiment [6] and in experiment [7] were 0.037 s⁻¹ and 0.0997 s⁻¹, respectively. In experiment [7], this molecule yielded a Kd of 1620 nM. This molecule also showed a kon in experiment [7] of 61700 M⁻¹ s⁻¹.

B7: Clec2e CRD-mouse IgG2a-Fc fusion protein (Fc fusion)
chain: FGNKCFYFSEDMGNWTFSQSSCIALDAHLALFDSLEELNFLKRYKGASDHWIGLHRESSEHPWIWTDNTEYNNLVLTRGGGECAYLSNRGIYNSSGDIHKKWICNGGGSGGGSGGGS
In the case of B7, the binding result in experiment [1] was “no binding (tested: 10 µg/ml)”. Further, the “Mean normalized OD” value in experiment [2] turned out to be 0.017 OD; in experiment [3] it was 0.016 OD; in experiment [4], 0.066 OD.
